Measurements: publication doi:10.1101/2020.08.16.252742 (bioRxiv, 2020)

B1: anti-HIV-1 gp120 monoclonal antibody PGT145 (antibody, V domains shown)
VH: QVQLVQSGAEVKKPGSSVKVSCKASGNSFSNHDVHWVRQATGQGLEWMGWMSHEGDKTGLAQKFQGRVTITRDSGASTVYMELRGLTADDTAIYYCLTGSKHRLRDYFLYNEYGPNYEEWGDYLATLDVWGHGTAVTVSS
VL: EVVITQSPLFLPVTPGEAASLSCKCSHSLQHSTGANYLAWYLQRPGQTPRLLIHLATHRASGVPDRFSGSGSGTDFTLKISRVESDDVGTYYCMQGLHSPWTFGQGTKVEIK
B2: anti-HIV-1 gp41 monoclonal antibody 10E8 (antibody, V domains shown)
VH: EVQLVESGGGLVKPGGSLRLSCSASGFDFDNAWMTWVRQPPGKGLEWVGRITGPGEGWSVDYAAPVEGRFTISRLNSINFLYLEMNNLRMEDSGLYFCARTGKYYDFWSGYPPGEEYFQDWGRGTLVTVSS
VL: SYELTQETGVSVALGRTVTITCRGDSLRSHYASWYQKKPGQAPILLFYGKNNRPSGVPDRFSGSASGNRASLTISGAQAEDDAEYYCSSRDKSGSRLSVFGGGTKLTVL

Columns and labels:
[1] = biological target: HIV-1 JR-FL Env glycoprotein (unlabelled) on HIV-1 Gag-GFP pseudovirions (HIV-1 JR-FL, UniProt Q75760, strain); test: single-molecule photobleaching of immunostained virions
[2] = biological target: HIV-1 NL4-3 Env glycoprotein (unlabelled) on HIV-1 Gag-GFP pseudovirions (HIV-1 group M subtype B, NL4-3 (pNL4-3), strain); test: as above

| Binder | binding result [1] | binding result [2] |
| --- | --- | --- |
| B1 | binds | binds |
| B2 | binds | binds |
